Experimental data: article PMC11161652, “ASXLs binding to the PHD2/3 fingers of MLL4 provides a mechanism for the recruitment of BAP1 to active enhancers” (Nature Communications, 2024)

Columns and labels:
[1] = target: T1, PHD2 and PHD3 fingers of human MLL4 (aa 227-324) (human, UniProt O14686 227-324)
T1 chain: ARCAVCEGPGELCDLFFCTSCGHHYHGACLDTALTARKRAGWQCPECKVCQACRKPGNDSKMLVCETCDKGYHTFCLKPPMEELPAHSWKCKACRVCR

[2] = target: T2, PHD2 and PHD3 fingers of human MLL3 (aa 342-439) (human, UniProt Q8NEZ4 342-439)
T2 chain: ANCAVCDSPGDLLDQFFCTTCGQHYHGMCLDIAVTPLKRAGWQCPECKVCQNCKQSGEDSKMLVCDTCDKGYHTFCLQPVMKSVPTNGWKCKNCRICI

[3] = target: T3, PHD2 and PHD3 fingers of human MLL4 (aa 227-324) (human, UniProt O14686 227-324); test: not stated; fluorescence spectroscopy or NMR: the legends of Fig. 3c and Fig. 4b say that values marked (a) are from NMR and the others from fluorescence; the text does not tell which for these pairs; conditions: both partners purified
T3 construct: PHD2 and PHD3 fingers of human MLL4 (KMT2D), aa 227-324; also called MLL4_(PHD2/3); MLL4 PHD2/3; source: E. coli BL21-CodonPlus, purified (glutathione agarose, PreScission cleavage; unlabeled proteins also SEC)
T3 sequence (looked up): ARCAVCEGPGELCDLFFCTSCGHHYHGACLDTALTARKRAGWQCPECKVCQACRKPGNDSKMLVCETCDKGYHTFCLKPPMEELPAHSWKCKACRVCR

[4] = target: T4, PHD2 and PHD3 fingers of human MLL3 (aa 342-439) (human, UniProt Q8NEZ4 342-439); test: other fluorescence titration; tryptophan fluorescence, 25 °C; 1.0 µM MLL4 PHD2/3 or MLL3 PHD2/3 with increasing peptide; excitation 295 nm; 20 mM Tris pH 7.2, 150 mM NaCl, 1 mM TCEP, 0.02% Tween20; average of three measurements; conditions: both partners purified
T4 construct: PHD2 and PHD3 fingers of human MLL3 (KMT2C), aa 342-439; 15N-labelled for NMR titrations; also used unlabelled as the titrant against MLL3 PHD4; also called MLL3_(PHD2/3); MLL3 PHD2/3; source: E. coli BL21-CodonPlus, purified (glutathione agarose, PreScission cleavage; unlabeled proteins also SEC)
T4 sequence (looked up): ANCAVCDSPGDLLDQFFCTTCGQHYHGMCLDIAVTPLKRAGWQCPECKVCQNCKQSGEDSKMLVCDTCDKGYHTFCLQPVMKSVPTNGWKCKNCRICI

- Kd [1]: 11 µM
- Kd [2]: 10.5 µM
- fold reduction in binding against the wild type ASXL2 peptide [3]: ~16 fold
- binding result [4]: binds
B1: ASXL2 peptide (aa 650-670) R655I (peptide, UniProt Q76L83 650-670, looked up)
peptide: NRTGAITLADIKAKAQLVKAQ
notes: ASXL2, residues 650-670; R655I is said to be associated with large intestine cancer; also called R655I mutant of ASXL2; source: synthetic peptide (SynPeptide)
